Drawing on publication PMC3897949, this text covers stoichiometry N for one molecule.

This assay has as its target PCAF HAT domain (amino acids 493-658), His-tagged (human), Q92831. The assay can be described thus: SEC-MALS; protein at 2, 6 and 20 mg/ml on a size exclusion column (WTC-010S5); 50 mM phosphate buffer pH 7.0, 150 mM NaCl, 35°C; monomer to dimer. As to conditions: remark: other sources report otherwise. In general terms: Size exclusion chromatography separates by hydrodynamic size, large species first.

B1: PCAF HAT domain (amino acids 493-658), His-tagged, Q92831 493-658 (domain or fragment)
chain: VIEFHVVGNSLNQKPNKKILMWLVGLQNVFSHQLPRMPKEYITRLVFDPKHKTLALIKDGRVIGGICFRMFPSQGFTEIVFCAVTSNEQVKGYGTHLMNHLKEYHIKHDILNFLTYADEYAIGYFKKQGFSKEIKIPKTKYVGYIKDYEGATLMGCELNPRIPYTE
As a reminder, the stoichiometry N is a count of units in the complex or per binding partner. As to B1, the stoichiometry N was found to be 2.
